According to US20260028390A1, “ALPHA1-ANTITRYPSIN FOR USE IN THE TREATMENT OF DISEASES OR DISORDERS OF THE NERVOUS SYSTEM SUCH AS CHRONIC INFLAMMATORY DEMYELINATING POLYNEUROPATHY” (Ageronix SA, priority 2022, published 2026):
Where “and” joins values, the source holds several entries; their conditions need not be identical. Identical values can stand only once.

Tests used:
[1] = target: T1, Recombinant Human TACE/ADAM17 (Homo sapiens, UniProt P78536); experiment: Cell free TACE/ADAM17 activity; format: biochemical; conditions: cell-free assay; AAT Sigma Aldrich, batch A6150; read-out: IC50 of TACE activity inhibition
T1 construct: purchased R&D Systems 930-ADB-010
T1 sequence (P78536 215-671 limits assumed): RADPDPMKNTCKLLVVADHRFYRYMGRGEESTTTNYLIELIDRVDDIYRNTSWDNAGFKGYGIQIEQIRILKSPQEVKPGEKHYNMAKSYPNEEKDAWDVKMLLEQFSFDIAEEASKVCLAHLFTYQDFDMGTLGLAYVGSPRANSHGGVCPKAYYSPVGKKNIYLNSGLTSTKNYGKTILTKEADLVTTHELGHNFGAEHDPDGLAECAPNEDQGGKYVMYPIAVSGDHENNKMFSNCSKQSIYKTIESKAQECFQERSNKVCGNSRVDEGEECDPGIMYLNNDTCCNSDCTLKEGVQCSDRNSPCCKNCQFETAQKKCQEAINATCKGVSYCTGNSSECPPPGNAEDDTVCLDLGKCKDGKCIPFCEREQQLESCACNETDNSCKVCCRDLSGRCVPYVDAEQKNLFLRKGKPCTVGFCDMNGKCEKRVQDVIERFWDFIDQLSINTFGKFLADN
Protocol: TACE activity and its inhibition by human AAT (AAT) was performed with Recombinant Human TACE/ADAM17 kit (930-ADB and ES003, R&D Systems) in black 96-well immuno plates (437111, ThermoFisher Scientific). The enzymatic activity of TACE/ADAM17 was measured by mixing 0.005 μg of rhTACE with 10 μM of Mca-PLAQAV-Dpa-RSSSR-NH2 fluorogenic peptide substrate III in assay buffer (25 mM Tris, 2.5 μM ZnCl2, 0.005% Brij-35 (w/v), pH 9.0) to a final volume of 100 μl. AAT (Sigma Aldrich, batch A6150) was resuspended in water (vehicle), control TACE/ADAM17 activity was assessed in presence of the vehicle (amount used for AAT 100 μM). AAT was added at different concentration (0, 6.25, 12.5, 25, 50 and 100 μM) to assess its dose-dependent inhibition of TACE/ADAM17. All conditions were performed in triplicates. Activity was measured as relative fluorescent unit (RFU) in a kinetic mode (9 time points over 5 min) with a SpectraMax iD3 Microplate Reader (low PMT gain, is exposition, top read at 1 mm, wavelength: excitation 320 nm, emission 405 nm). Bar graph as percentage of control activity was obtained by averaging the values obtained over the 5 min for each of the condition.
TACE activity is assessed according to the manufacturer's instruction (Recombinant Human TACE/ADAM17 kit, 930-ADB, R&D Systems) in kinetic mode, without or with different AAT concentration. All conditions were done in triplicates and are shown as mean±SD (FIGS. 5A, 5B and 5C).
ADAM-17 activity and its inhibition by human peptide 8 was measured with Recombinant Human ADAM-17 kit (Recombinant Human TACE/ADAM17 Protein, CF: 930-ADB-010 and Mca-PLAQAV-Dpa-RSSSR-NH2 Fluorogenic Peptide Substrate:ES003; R&D Systems) in black 96-well immunoplates (437111; Thermo Fisher Scientific). The enzymatic activity of ADAM-17 was measured by mixing 0.005 μg of rhADAM-17 with 10 μM of Mca-PLAQAV-Dpa-RSSSR-NH2 fluorogenic peptide substrate III in assay buffer (25 mM Tris, 2.5 μM ZnCl2, 0.005% Brij-35 (w/v), pH 9.0) to a final volume of 100 μL. Peptide 8 (Syngene) was dissolved in DMSO and diluted to the desired concentration in assay buffer. Control ADAM-17 activity was assessed in the presence of the assay buffer. […] All conditions were performed in triplicate. Activity was measured as relative fluorescent units (RFU) in endpoint mode (5 min) with a SpectraMax iD3 Microplate Reader (automatic PMT gain, wavelengths: excitation 320 nm, emission 405 nm).

[2] = test system: plasma NfL; experiment: Plasma NfL, CMT mice treated with AAT 180 mg/kg/day sc; format: in vivo, mouse
Source text: (§1) Animals were received at 6 weeks of age and housed under controlled conditions for the duration of the study. The study comprised two groups of 8 transgenic mice (CMT mice) each and one group of 8 age matched wild type (WT) C57B16 mice, serving as positive control. Animals were assigned to the following subcutaneous treatments twice daily at 7:00 AM and 7:00 PM for 2 weeks, starting from 8 weeks and up to 10 weeks of age: • Wild-type (WT, no disease) mice receiving vehicle, 0.9% NaCl (positive control) • CMT1A mice receiving vehicle, 0.9% NaCl (negative control) • CMT1A mice receiving AAT at 90 mg/kg per injection (daily dose 180 mg/kg)
(§2) The efficacy parameters included: • neuromuscular performance (rotarod latency to fall and grip strength test), • sciatic nerve electrophysiology (CMAP amplitude and NCV) • cytokine (IL-6 and TNFα), as well as NfL analysis • sciatic nerve histology (number of axons and axonal diameter),
As supportive information for the mode of action of AAT in CMT, plasma concentration of interleukin 6 (IL-6) and TNFα were measured at Day 1 (8 weeks), Day 15 (10 weeks) and Day 30 (12 weeks). At the same timepoints, plasma levels of the biomarker of nerve damage, NfL were determined.

[3] = Bodyweight, CIDP mouse model; format: in vivo; conditions: per animal, listed as hAAT
Protocol: C57BL/6 mice were received at 8 weeks of age and housed under controlled conditions for the duration of the study. Three groups of 4 animals each were assigned to the following subcutaneous treatments twice daily at 7:00 AM and 7:00 PM for 2 weeks, from 20 to 35 days after the start of disease induction: • Wild type (WT) mice receiving the vehicle, 0.9% NaCl (positive control) • CIDP mice receiving the vehicle, 0.9% NaCl (negative control) • CIDP mice receiving human AAT (AAT), 50 mg/kg per injection
Disease induction consisted in subcutaneous injection of mouse sciatic nerve homogenate in phosphate buffer saline (PBS)+Freund's adjuvant mixture at 10 mL/kg. For each treatment, 3 different body sites injections were performed. Control mice also received three subcutaneous injections of PBS+Freund's adjuvant at the same 3 different body sites.

[4] = test system: CMT1A mice B6.Cg-Tg(PMP22)C3Fbas/J; experiment: Sciatic nerve histology, CMT mice treated with AAT 180 mg/kg/day sc; format: in vivo, mouse
Source text: as §1, §2

[5] = CMT1A + AAT 90 mg/kg sc twice daily
[6] = CMT mice, AAT 180 mg/kg daily dose
[7] = after 2 weeks treatment free period

alpha1-antitrypsin (AAT) protein
IC50 [1]: 15.3 µM
Plasma NfL (Mean ± SD) ([2]; 8 weeks old (baseline, Day 1), CMT1A + AAT): 3.83 ± 0.61 ng/mL
Plasma NfL (Mean ± SD) ([2]; 10 weeks old (Day 15, after 2 weeks AAT 90 mg/kg sc twice daily)): 1.96 ± 0.46 ng/mL
positive effect on NfL plasma levels ([2]; 12 weeks of age, after 2-week treatment-free period): remained significant
Plasma NfL (Mean ± SD) ([2]; 12 weeks old (Day 30, after 2-week treatment-free period)): 4.25 ± 0.36 ng/mL
level of NfL ([2]; CMT mice, AAT 90 mg/kg sc twice a day): reduced
Bodyweight ([3]; day 1 (before disease induction), in g (unit assumed)): 20.74 and 20.81 and 19.50 and 20.65
Bodyweight ([3]; day 5 (before treatment), in g (unit assumed)): 20.92 and 21.07 and 20.12 and 20.71
Bodyweight ([3]; day 9 (before treatment)): 21.26 (2×) and 20.54 and 21.00
Bodyweight ([3]; day 13 (before treatment), in g (unit assumed)): 21.76 and 21.37 and 20.24 and 21.18
Bodyweight ([3]; day 17 (before treatment), in g (unit assumed)): 21.92 and 21.54 and 21.35 and 21.90
Bodyweight ([3]; day 20 (first treatment day), in g (unit assumed)): 22.06 and 21.58 and 21.41 and 22.04
Bodyweight ([3]; day 23, in g (unit assumed)): 22.21 and 21.71 and 21.43 and 22.13
Bodyweight ([3]; day 26, in g (unit assumed)): 22.31 and 21.78 and 21.47 and 22.20
Bodyweight ([3]; day 29, in g (unit assumed)): 22.49 and 21.87 and 21.53 and 22.30
Bodyweight ([3]; day 32, in g (unit assumed)): 22.68 and 22.00 and 21.64 and 22.45
Bodyweight ([3]; day 35, in g (unit assumed)): 22.79 and 22.14 and 21.65 and 22.62
Sciatic nerve histology, Axonal diameter (Mean ± SD) [4, 5]: 3.84 ± 0.25 μm
Sciatic nerve histology, Axons/100 μm2 (Mean ± SD) [4, 5]: 26.30 ± 2.00
Sciatic nerve histology, g-ratio (Mean ± SD) [4, 5]: 0.62 ± 0.16
axonal diameter relative to untreated CMT animals [4, 6]: increase
g-ratio relative to untreated CMT animals [4, 6]: decrease
number of axons in the treated animals [4, 7]: significantly larger
size of the myelin sheath in the treated animals [4, 7]: significantly larger
